This is an account of results in article PMC6494084.

Like-named read-outs stand apart in the source and are kept apart here.

Common to all, as to assay: X-ray crystallography
For data set [1], the target named is T1, DNA polymerase beta (pol β), wild-type (human, UniProt P06746 1-335).
In data set [2] the target is T1, DNA polymerase beta (pol β), wild-type. This is another data set of the same source.
Data set [3] has the same target. The source holds these as a separate data set.

B1: 1-nt gapped DNA, templating G (dsDNA)
DNA 1: CCGACGGCGCATCAGC
DNA 2: GCTGATGCGC
DNA 3: GTCGC
modifications: 5'-phosphate on downstream strand
Regarding B1, in data set [1], the binding result is given as “binds”.

B2: 1-nt gapped DNA, templating A (dsDNA)
DNA 1: CCGACAGCGCATCAGC
DNA 2: GCTGATGCGC
DNA 3: GTCGC
modifications: 5'-phosphate on downstream strand
In the case of B2, in data set [2], the binding result is reported as “binds”.

B3: 1-nt gapped DNA, templating C (dsDNA)
DNA 1: CCGACCGCGCATCAGC
DNA 2: GCTGATGCGC
DNA 3: GTCGC
modifications: 5'-phosphate on downstream strand
As for B3, in data set [3], the binding result is “binds”.
